T1: human IL-2Rβ (CD122 protein, Fc Tag) (27-239) (human, UniProt P14784 27-239)
T1 construct: range 27-239; Bought protein; also called hu-IL-2Rβ subunit; IL-2Rβ subunit; not shown: Fc tag of the bought protein
T1 sequence (looked up): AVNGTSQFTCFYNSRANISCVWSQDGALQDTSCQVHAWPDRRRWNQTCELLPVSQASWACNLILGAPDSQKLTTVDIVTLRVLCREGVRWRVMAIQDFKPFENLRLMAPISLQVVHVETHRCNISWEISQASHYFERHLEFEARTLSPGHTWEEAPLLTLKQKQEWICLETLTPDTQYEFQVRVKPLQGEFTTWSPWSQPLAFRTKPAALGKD

T2: human IL-2Rγc (CD132 protein, Fc Tag) (23-254) (human, UniProt P31785 23-254)
T2 construct: range 23-254; Bought protein; also called hu-IL-2Rγc subunit; IL-2Rγc subunit; not shown: Fc tag of the bought protein
T2 sequence (looked up): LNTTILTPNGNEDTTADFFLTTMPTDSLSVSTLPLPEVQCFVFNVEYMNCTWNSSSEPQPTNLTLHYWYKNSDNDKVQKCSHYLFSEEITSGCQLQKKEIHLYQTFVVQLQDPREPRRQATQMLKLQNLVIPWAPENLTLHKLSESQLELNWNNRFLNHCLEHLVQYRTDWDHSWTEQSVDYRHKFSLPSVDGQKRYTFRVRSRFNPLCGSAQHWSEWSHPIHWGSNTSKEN


Legend:
[1] = molecular target: T1, human IL-2Rβ (CD122 protein, Fc Tag) …; assay: competition ELISA, peptide tracer
Method: (§1) Binding of Fc fusions to IL-2Rβ and IL-2Rγc were measured using a competition binding ELISA with biotinylated peptide/NeutrAvidin-HRP tracer. ELISA plate was prepared as described in Example 27.
(§2) The plate was washed 4 times with PT (1×PBS, 0.05% Tween® 20) buffer. Fifty (50) μL of IL-2R ligands serially diluted in PBT was added to appropriate wells then incubated at 4° C. for 1 hr.
(§3) At the appropriate time, the precomplexed bn-peptide/NA-HRP tracer was diluted to 2-fold its predetermined binding EC80 (typically 30 to 10 nM) without washing. fifty (50) μL of bn-peptide/NA-HRP tracer was added to each well and incubated at 4° C. for 45 mins.

[2] = molecular target: T3, cynomolgus monkey IL-2Rβ subunit (cynomolgus monkey); assay: competition ELISA, peptide tracer
T3 construct: Bought protein; also called cyno-IL-2Rβ subunit
Method: as §1, §2, §3

[3] = molecular target: T1, human IL-2Rβ (CD122 protein, Fc Tag) …; assay: phage ELISA competition
Procedure, shortened: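 Competitive binding ELISA in which a phage tracer competes with test ligands for human IL-2Rβ-Fc; IC50 is derived from the absorbance signal across the ligand dilution series. Without washing, 50 μL of phage tracer was added for 45 min at 4° C. Bound phage was detected with TMB for 1 to 15 min at 25° C, followed by stop solution and absorbance at 450 nm.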

[4] = molecular target: T2, human IL-2Rγc (CD132 protein, Fc Tag) …; assay: competition ELISA, peptide tracer
Method: as §1, §2, §3

[5] = molecular target: T4, cynomolgus monkey Rγc subunit (cynomolgus monkey); assay: competition ELISA, peptide tracer
T4 construct: also called cyno-IL-2Rγc subunit
Method: as §1, §2, §3

T3 sequence (Q38J85 whole entry): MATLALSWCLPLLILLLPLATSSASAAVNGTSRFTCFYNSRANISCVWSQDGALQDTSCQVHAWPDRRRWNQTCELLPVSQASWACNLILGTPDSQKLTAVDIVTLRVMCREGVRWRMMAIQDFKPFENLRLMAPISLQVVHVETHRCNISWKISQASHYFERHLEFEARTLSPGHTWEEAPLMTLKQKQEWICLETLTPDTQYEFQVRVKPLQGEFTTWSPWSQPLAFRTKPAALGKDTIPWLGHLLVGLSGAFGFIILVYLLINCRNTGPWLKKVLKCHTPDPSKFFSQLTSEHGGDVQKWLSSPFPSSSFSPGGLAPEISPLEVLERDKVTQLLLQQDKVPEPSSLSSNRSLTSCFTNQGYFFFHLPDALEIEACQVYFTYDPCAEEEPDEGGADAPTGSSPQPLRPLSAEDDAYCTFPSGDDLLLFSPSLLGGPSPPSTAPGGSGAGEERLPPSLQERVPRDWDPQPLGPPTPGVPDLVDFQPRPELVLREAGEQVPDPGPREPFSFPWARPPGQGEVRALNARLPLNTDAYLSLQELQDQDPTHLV

Binder	IC50 [1] [µM]	IC50 [2] [µM]	IC50 [3] [µM]	IC50 [4] [µM]	IC50 [5] [µM]	binding result [1]
ELLVDCFKVKVGELCDLFFGGG [SEQ ID NO 3124]	< 100	< 100				
LLVDCFKVKVGELCDLFFGGG [SEQ ID NO 3125]	< 100	< 100				
GGRYVHDCFIAQVGDLCDLFLH [SEQ ID NO 3137]	< 100	< 100				
WYPCWGELCDLD [SEQ ID NO 2891]			< 100			
GGELLVDCFKVKVGELCDLF [SEQ ID NO 3122]	< 100	< 100				
WPCWLGELCDLD [SEQ ID NO 2890]			< 100			
WYPCWIARVGELCDLEEGPVNRGGGGGSGGVVCQDWEGVELCWQGG [SEQ ID NO 4172]	< 100	< 100		< 100	< 100	
GGRYVHDCFIAQVGDLCDLFLHGG [SEQ ID NO 3147]	< 100	< 100				
GGRYVHDCFIAQVGDACDLFLHGG [SEQ ID NO 3176]	< 100	< 100				
GGRYVADCFIAQVGDLCDLFLHGG [SEQ ID NO 3180]	< 100	< 100				
GGRYVHDCFIAQAGDLCDLFLHGG [SEQ ID NO 3173]	< 100	< 100				
GGRYVHDCFIGAVGDLCDLFLHGG [SEQ ID NO 3200]	< 100	< 100				
GGRYVHDCFIAQVADLCDLFLHGG [SEQ ID NO 3174]	< 100	< 100				
GGRYAHDCFIAQVGDLCDLFLHGG [SEQ ID NO 3179]	< 100	< 100				
GGAYVHDCFIGQVGDLCDLFLHGG [SEQ ID NO 3202]	< 100	< 100				
GGRYVHDCFIAQVGDLCDLFLAGG [SEQ ID NO 3182]	< 100	< 100				
GGAYVHDCFIAQVGDLCDLFLHGG [SEQ ID NO 3177]	< 100	< 100				
GGRYVHDCFIGQVGDLCDLFLHGG [SEQ ID NO 3171]	< 100	< 100				
GGRAVHDCFIAQVGDLCDLFLHGG [SEQ ID NO 3178]	< 100	< 100				
GGRYVHDCFIAQVGDLCDLFAHGG [SEQ ID NO 3183]	< 100	< 100				
GGRYVHDCFIAQVGDLCALFLHGG [SEQ ID NO 3186]	< 100	< 100				

Binder	IC50 [1] [µM]	IC50 [2] [µM]	IC50 [3] [µM]	IC50 [4] [µM]	IC50 [5] [µM]	binding result [1]
GGRYVHDCFIAAVGDLCDLFLHGG [SEQ ID NO 3172]	< 100	< 100				
GGRYVHDCFIAQVGDLCDAFLHGG [SEQ ID NO 3185]	< 100	< 100				
GGRYVHDCFIGQVGDLCALFLHGG [SEQ ID NO 3204]	< 100	< 100				
GGRYVHDCFAAQVGDLCDLFLHGG [SEQ ID NO 3170]	< 100	< 100				
GGELLVDCFKVKVGELCDLFFG [SEQ ID NO 3114]	< 100	< 100				
SEQ ID NO 4173 (peptide) peptide: GGGELLVDCFKVKVGELCDLFFGGGGGSGGGGSGGVVCQDWEGVELCWQGG	< 100	< 100		< 100	< 100	
GGELLVDCFRVRVGELCDLFFGGG [SEQ ID NO 3128]	< 100	< 100				
LVDCFKVKVGELCDLFFGGG [SEQ ID NO 3126]	< 100	< 100				
SEQ ID NO 4177 (peptide) peptide: GGELLVDCFKVKVGELCDLFFGPAPAPAPAPAPAPAPAPAPAPAVVCQDWEGVELCWQGG	< 100	< 100		< 100	< 100	
SEQ ID NO 4174 (peptide) peptide: GGGELLVDCFKVKVGELCDLFFGGGGGSGGGGSGGGGSGGVVCQDWEGVELCWQGG	< 100	< 100		< 100	< 100	
SEQ ID NO 4175 (peptide) peptide: GGRYVHDCFIAQVGDLCDLFLHGGGGSGGGGSGGGGSGGGGSGGVVCQDWEGVELCWQGG	< 100	< 100		< 100	< 100	
VDCFKVKVGELCDLFFGGG [SEQ ID NO 3127]	< 100	< 100				
WPCWALGELCDLD [SEQ ID NO 2889]			< 100			
SEQ ID NO 4176 (peptide) peptide: GGRYVHDCFIAQVGDLCDLFLHPAPAPAPAPAPAPAPAGVVCQDWEGVELCWQGG	< 100	< 100		< 100	< 100	
SEQ ID NO 4182 (peptide) peptide: GGRYVHDCFIAQVGDLCALFLHPAPAPAPAPAPAPAPAGVVCQDWEGVELCWQGG	< 100	< 100		< 100	< 100	
SEQ ID NO 4185 (peptide) peptide: GGRYVHDCFIGQVGDLCDLFLHPAPAPAPAPAPAPAPAGVVCQDWEGVELCWQGG	< 100	< 100		< 100	< 100	
SEQ ID NO 4183 (peptide) peptide: GGRYVHDCFIAQAGDLCDLFLHPAPAPAPAPAPAPAPAGVVCQDWEGVELCWQGG	< 100	< 100		< 100	< 100	
SEQ ID NO 4184 (peptide) peptide: GGRYVHDCFIAQVGDACDLFLHPAPAPAPAPAPAPAPAGVVCQDWEGVELCWQGG	< 100	< 100		< 100	< 100	
GGELLVDCFKVKVGELCDLFF [SEQ ID NO 3107]	< 100	< 100				
GGWYPCWMAQLGELCDLDGGGGSGGVVCQDWEGVELCWQGG [IL-2Rβγc ligand having SEQ ID NO: 1263]						binds

Reference: patent publication US20220119492A1 (MEDIKINE, published 2022)
